# In US20240279345A1, “ALPHA 5 BETA 1 INTEGRIN BINDING AGENTS AND USES THEREOF” (PASITHEA THERAPEUTICS CORP., priority 2021, published 2024):
# Changes are numbered by the printed parent chain.
# B1: C-8G11 (antibody, V domains shown)
# VH: QVQLKESGPDLVAPSQSLSITCTVSGFSLTDYGVHWVRQPPGKGLEWLVVIWSDGSTTYNSALKSRLSITKDTSKRQVFLKMNSLQTDDTAMYYCARHAPSFIRYGSRYDALDYWGQGTSVTVSS
# VL: QIVLTQSPAIMSASLGERVTLTCTASSSVTSSFLHWYQQKPGSSPKLWIYSTSNLASGVPARFSGSGSGTSYSLTISSMEAEDAATYYCHQYHRSPPTFGGGTKLEIK
# notes: mouse hybridoma
# B2: C-14D12 (antibody, V domains shown)
# VH: B1 VH
# VL: B1 VL
# notes: mouse hybridoma antibody (supernatant, or purified by Protein A); also called antibody designated C-14D12; C-14D2
# B3: A2-3B06 (antibody, V domains shown)
# VH: QVQLKESGPGLVAPSQSLSITCTISGFSLTTYGVHWVRQPPGKGLEWLVVIWSDGSTTYNSALKSRLNITKDNSKSQVFLKMNSLQTDDTAMYYCVRHGGLLRRDAMDYWGQGTSVTVSS
# VL: B1 VL with L21M, T30S, S32N, F33S, L34F, I49L, H93L
# notes: mouse hybridoma antibody (supernatant, or purified by Protein A); also called antibody designated A2-3B06
# B4: A2-8H11 (antibody, V domains shown)
# VH: B3 VH
# VL: B1 VL with L21M, T30S, S32N, F33S, L34F, I49L, H93L
# notes: mouse hybridoma
# B5: A-4G02 (antibody, V domains shown)
# VH: QVQLKESGPGLVAPSQSLSITCTISGFSLTSYGVHWVRQPPGKGLEWLVVIWSDGSTTYNSTLKSRLSISKDNSKSQVFFKMNSLQTDDTAMYYCARHYDYDGDWFAYWGQGTLVTVSA
# VL: B1 VL with L21M, S28R, T30S, S32N, F33S, H93L
# notes: mouse hybridoma
# B6: A2-9A11 (antibody, V domains shown)
# VH: B3 VH
# VL: B1 VL with L21M, T30S, S32N, F33S, L34F, I49L, H93L
# notes: mouse hybridoma
# B7: A-15B08 (antibody, V domains shown)
# VH: B5 VH
# VL: B1 VL with L21M, S28R, T30S, S32N, F33S, H93L
# notes: mouse hybridoma antibody (supernatant, or purified by Protein A); NST N-glycosylation site in CDRH2; also called antibody designated A-15B08
# B8: A-7D06 (antibody, V domains shown)
# VH: B3 VH
# VL: B1 VL with L21M, T30S, S32N, F33S, L34F, I49L, H93L
# notes: mouse hybridoma
# B9: A-11G01 (antibody, V domains shown)
# VH: B3 VH
# VL: B1 VL with L21M, T30S, S32N, F33S, L34F, I49L, H93L
# notes: mouse hybridoma
# B10: A2-6C10 (antibody, V domains shown)
# VH: B3 VH
# VL: B1 VL with L21M, T30S, S32N, F33S, L34F, I49L, H93L
# notes: mouse hybridoma
# B11: A-3A08 (antibody, V domains shown)
# VH: B3 VH
# VL: B1 VL with L21M, T30S, S32N, F33S, L34F, I49L, H93L
# notes: mouse hybridoma
# B12: A2-5D10 (antibody, V domains shown)
# VH: B5 VH with F80L
# VL: B1 VL with V3L, L21M, T30S, S32R, F33C, S64R, H93Y
# notes: mouse hybridoma antibody (supernatant, or purified by Protein A); also called antibody designated A2-5D10
# B13: A-14G08 (antibody, V domains shown)
# VH: QVQLQQPGAELVKPGASVKLSCKASGYTFTIYWINWVKQRPGQGLEWIGKIYPGSISTDYNEKFKSKATLTVDTSSSTAYMQLSSLTSDDSAVYYCAITGTGGLAYWGQGTLVTVSA
# VL: ENVLTQSPAIMSASLGEKVTMTCRASSSVNYMYWYQQKSDASPKLWIYFTSSLAPGVPGRFSGSGSGNSYSLTISTMEGEDAATYYCQQFTTSPFTFGSGTKLEIK
# notes: mouse hybridoma
# B14: A-15H11 (antibody, V domains shown)
# VH: B13 VH
# VL: B13 VL
# notes: mouse hybridoma
# B15: A2-7A05 (antibody, V domains shown)
# VH: B13 VH
# VL: B13 VL
# notes: mouse hybridoma antibody (supernatant, or purified by Protein A); also called antibody designated A2-7A05; A-7A05
# B16: A2-7F01 (antibody, V domains shown)
# VH: B13 VH with K50N, I56S, D59N, S66T, L104F
# VL: B13 VL with T22S, G59T, Y70F, T76S, F90L, T92G, K102R
# notes: mouse hybridoma antibody (supernatant, or purified by Protein A); also called antibody designated A2-7F01
# B17: A-3A08 (antibody, V domains shown)
# VH: B3 VH
# VL: B1 VL with L21M, T30S, S32N, F33S, L34F, I49L, H93L
# B18: A-15B08 IgG4 Chimera (antibody, V domains shown)
# VH: B5 VH
# VL: B1 VL with L21M, S28R, T30S, S32N, F33S, H93L
# B19: C-14D12 IgG4 Chimera (antibody, V domains shown)
# VH: B1 VH
# VL: B1 VL
# B20: A-4G02 (antibody, V domains shown)
# VH: B5 VH
# VL: B1 VL with L21M, S28R, T30S, S32N, F33S, H93L
# notes: mouse hybridoma antibody
# B21: A-11G01 (antibody, V domains shown)
# VH: B3 VH
# VL: B1 VL with L21M, T30S, S32N, F33S, L34F, I49L, H93L
# notes: mouse hybridoma antibody
# B22: A-3A08 (antibody, V domains shown)
# VH: B3 VH
# VL: B1 VL with L21M, T30S, S32N, F33S, L34F, I49L, H93L
# notes: mouse hybridoma antibody
# B23: C-8G11 (antibody, V domains shown)
# VH: B1 VH
# VL: B1 VL
# notes: mouse hybridoma antibody
# B24: A-7D06 (antibody, V domains shown)
# VH: B3 VH
# VL: B1 VL with L21M, T30S, S32N, F33S, L34F, I49L, H93L
# notes: mouse hybridoma antibody
# B25: A-14G08 (antibody, V domains shown)
# VH: B13 VH
# VL: B13 VL
# notes: mouse hybridoma antibody
# B26: A-15H11 (antibody, V domains shown)
# VH: B13 VH
# VL: B13 VL
# notes: mouse hybridoma antibody
# Biological target: T1, α5β1 integrin on cells (PMA-activated K562 cells; U87MG cells) (human, UniProt P08648 42-1049; P05556 21-798)
# T1 construct: Endogenous integrin of human cell lines; also called cellular α5β1 integrin; cell surface α5β1 integrin receptors
# Assay: flow cytometry on PMA-activated K562 cells, hybridoma supernatant
# Method: Four weeks later cells from spleens and draining lymph nodes were fused to create hybridomas. […] In short, hybridoma supernatants were incubated with the activated K562 cells for 20 minutes, washed, then incubated with a fluorescent conjugated detecting antibody for 20 minutes, washed, resuspended in 7-Aminoactinomycin D, and Mean Fluorescence Intensity (MFI) measured on a Guava cytometer (Luminex Corporation, Austin, TX 78727).
# T1 sequence (P08648 42-1049 limits assumed, chain 1 of 2): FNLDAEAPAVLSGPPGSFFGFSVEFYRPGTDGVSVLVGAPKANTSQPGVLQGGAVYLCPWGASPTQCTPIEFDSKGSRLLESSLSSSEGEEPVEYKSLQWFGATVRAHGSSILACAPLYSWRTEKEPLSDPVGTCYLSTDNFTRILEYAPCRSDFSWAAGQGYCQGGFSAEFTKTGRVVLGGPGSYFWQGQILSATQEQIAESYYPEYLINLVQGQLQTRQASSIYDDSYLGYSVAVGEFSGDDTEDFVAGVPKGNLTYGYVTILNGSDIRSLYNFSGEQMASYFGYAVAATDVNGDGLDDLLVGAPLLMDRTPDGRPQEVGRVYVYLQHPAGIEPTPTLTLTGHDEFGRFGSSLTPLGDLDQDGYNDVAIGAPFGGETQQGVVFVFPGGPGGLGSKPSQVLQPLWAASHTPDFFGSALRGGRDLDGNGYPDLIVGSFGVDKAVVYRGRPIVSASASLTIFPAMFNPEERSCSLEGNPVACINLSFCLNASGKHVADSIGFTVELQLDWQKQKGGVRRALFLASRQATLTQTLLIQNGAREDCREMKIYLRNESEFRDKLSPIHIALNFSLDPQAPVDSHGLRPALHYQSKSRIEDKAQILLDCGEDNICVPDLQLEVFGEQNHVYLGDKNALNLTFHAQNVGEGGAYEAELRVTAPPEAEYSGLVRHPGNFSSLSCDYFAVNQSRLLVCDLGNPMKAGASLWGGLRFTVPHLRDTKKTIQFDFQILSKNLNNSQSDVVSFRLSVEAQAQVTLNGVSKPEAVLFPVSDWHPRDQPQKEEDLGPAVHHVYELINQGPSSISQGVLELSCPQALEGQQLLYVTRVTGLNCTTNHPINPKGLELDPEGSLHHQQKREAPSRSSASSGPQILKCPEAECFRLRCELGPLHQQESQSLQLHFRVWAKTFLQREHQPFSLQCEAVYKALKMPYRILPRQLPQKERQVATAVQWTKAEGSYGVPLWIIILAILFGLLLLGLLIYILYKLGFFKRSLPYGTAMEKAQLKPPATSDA
# T1 sequence (P05556 21-798 limits assumed, chain 2 of 2): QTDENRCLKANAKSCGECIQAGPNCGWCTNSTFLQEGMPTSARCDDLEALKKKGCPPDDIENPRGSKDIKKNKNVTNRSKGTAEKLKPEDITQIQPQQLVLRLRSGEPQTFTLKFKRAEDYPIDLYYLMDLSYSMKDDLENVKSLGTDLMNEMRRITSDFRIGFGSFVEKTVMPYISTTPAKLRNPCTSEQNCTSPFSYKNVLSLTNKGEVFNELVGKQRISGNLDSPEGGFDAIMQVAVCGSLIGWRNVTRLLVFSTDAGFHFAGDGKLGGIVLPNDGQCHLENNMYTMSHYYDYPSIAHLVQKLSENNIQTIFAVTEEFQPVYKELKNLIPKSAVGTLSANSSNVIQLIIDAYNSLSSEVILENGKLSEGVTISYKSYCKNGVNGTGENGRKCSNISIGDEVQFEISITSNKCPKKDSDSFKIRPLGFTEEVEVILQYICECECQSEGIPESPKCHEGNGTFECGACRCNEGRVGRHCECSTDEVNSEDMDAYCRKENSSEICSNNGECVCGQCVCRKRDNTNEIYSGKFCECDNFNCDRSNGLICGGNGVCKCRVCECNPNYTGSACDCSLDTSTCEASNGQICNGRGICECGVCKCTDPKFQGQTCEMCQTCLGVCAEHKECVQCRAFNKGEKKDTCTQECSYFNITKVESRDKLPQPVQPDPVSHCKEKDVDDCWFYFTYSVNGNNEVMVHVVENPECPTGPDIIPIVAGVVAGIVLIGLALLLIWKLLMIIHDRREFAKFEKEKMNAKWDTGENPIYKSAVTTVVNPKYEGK
row,MFI,Molecule
1,2690,B1
2,2020,B2
3,2140,B3
4,4370,B4
5,1980,B5
6,3400,B6
7,1390,B7
8,742,B8
9,1610,B9
10,2120,B10
11,1180,B11
12,1890,B12
13,4210,B13
14,6570,B14
15,5500,B15
16,6260,B16

# Biological target: T2, recombinant mouse α5β1 integrin (mouse, UniProt P11688 45-999; P09055 21-728)
# T2 construct: bought recombinant heterodimer (R&D Systems cat. 7728-A5) coated on the plate; also called rm-α5β1
# Assay: ELISA, coated integrin, supernatant 1:10
# Method: Plates were washed 3 times with Wash Buffer (1× Tris Buffered Saline containing 0.05% Tween20), blocked with 2% BSA in 1×TBS (made from 10× Thermo Scientific Blocker BSA (10×) in TBS; Thermo Fisher Scientific, Waltham, MA, cat. no. 37520) for 2 hours at room temperature (RT) then incubated with hybridoma supernatants diluted 1:10 with Standard Diluent (2% BSA, 1×TBS, 0.05% Tween20). […] Absorbance 450 nm was measured.
row,Absorbance 450 nm [A450],Molecule
1,0.671,B17

# Biological target: α5β1 integrin on U87MG cells (human, UniProt P08648 42-1049; P05556 21-798)
# Assay: cell-based or functional assay
Cell Counts (Curve Bottom) [cells],Cell Counts (Curve Top) [cells],% Inhibition [%],Molecule
32000,50000,–,IgG4 Isotype (antibody)
4780,33800,86,B18
8040,37200,78,B19

# Biological target: T3, purified recombinant human α5β1 integrin heterodimer, 6×His tagged (rh-α5β1); Acro Biosystems, cat. no. … (human, UniProt P08648 42-995; P05556 21-728)
# T3 construct: bought recombinant heterodimer; also called rh-α5β1-6×His tagged protein; His-tagged-α5β1
# Assay: BLI (Octet), supernatant mAb on anti-mouse IgG Fc sensor, 20 nM rh-α5β1
# From the text: Anti-Mouse IgG Fc biosensors were used to load each clone supernatant. Assay steps were as follows: Sensor Check (30s)-->Load Ab (700s)-->Quench (480s)-->Baseline(480s)-->Ab Assoc. (600s)-->Dissoc. (600s).
# T3 sequence (P08648 42-995 limits assumed, form in doubt, chain 1 of 2): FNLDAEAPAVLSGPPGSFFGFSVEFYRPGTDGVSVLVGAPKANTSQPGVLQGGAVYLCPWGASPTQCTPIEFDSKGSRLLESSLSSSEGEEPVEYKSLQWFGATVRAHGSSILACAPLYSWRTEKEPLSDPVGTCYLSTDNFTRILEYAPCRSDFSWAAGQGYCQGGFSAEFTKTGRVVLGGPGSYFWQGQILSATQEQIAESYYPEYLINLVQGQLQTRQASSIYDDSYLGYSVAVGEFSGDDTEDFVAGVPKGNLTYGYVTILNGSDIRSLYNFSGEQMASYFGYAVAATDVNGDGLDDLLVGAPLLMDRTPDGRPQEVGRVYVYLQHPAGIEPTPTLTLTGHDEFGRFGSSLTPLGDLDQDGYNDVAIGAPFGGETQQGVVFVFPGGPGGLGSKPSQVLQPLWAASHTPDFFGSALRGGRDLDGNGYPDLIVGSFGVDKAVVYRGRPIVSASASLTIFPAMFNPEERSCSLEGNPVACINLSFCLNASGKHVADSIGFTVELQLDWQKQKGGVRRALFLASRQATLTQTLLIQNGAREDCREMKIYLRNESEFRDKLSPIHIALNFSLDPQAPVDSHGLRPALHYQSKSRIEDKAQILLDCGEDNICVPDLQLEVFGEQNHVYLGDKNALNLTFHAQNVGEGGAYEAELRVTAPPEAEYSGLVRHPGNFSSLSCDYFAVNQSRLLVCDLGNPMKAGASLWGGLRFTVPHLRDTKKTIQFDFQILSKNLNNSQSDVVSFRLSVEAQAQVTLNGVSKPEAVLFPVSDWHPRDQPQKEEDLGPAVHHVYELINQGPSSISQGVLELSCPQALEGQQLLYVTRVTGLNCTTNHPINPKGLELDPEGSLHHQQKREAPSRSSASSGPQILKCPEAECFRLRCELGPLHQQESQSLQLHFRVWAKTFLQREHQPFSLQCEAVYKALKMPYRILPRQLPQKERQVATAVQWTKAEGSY
# T3 sequence (P05556 21-728 limits assumed, form in doubt, chain 2 of 2): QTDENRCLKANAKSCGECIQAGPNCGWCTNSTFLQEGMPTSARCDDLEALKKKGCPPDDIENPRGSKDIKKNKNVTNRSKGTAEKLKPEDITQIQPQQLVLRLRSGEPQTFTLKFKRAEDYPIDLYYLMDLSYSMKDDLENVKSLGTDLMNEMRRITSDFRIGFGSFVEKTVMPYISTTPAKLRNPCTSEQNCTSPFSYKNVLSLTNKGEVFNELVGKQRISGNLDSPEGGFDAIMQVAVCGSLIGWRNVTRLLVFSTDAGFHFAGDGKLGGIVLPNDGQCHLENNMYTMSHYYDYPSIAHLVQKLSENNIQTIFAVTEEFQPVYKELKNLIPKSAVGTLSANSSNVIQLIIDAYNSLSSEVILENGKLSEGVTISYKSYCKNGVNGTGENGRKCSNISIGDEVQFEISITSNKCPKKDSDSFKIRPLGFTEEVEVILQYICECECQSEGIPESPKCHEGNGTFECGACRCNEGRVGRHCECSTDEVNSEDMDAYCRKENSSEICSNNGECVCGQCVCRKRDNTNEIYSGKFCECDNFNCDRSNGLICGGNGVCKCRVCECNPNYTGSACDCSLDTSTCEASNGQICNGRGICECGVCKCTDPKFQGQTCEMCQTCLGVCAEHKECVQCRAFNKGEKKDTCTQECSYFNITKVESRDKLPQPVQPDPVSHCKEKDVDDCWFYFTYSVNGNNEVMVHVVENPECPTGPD
Kd [nM],koff [s⁻¹],kon [M⁻¹ s⁻¹],Molecule
1.23,0.000396,321000,B20
5.03,0.00132,261000,B21
5.08,0.00124,244000,B22
0.442,0.00012,271000,B23
4.75,0.00128,270000,B24
0.845,0.000198,234000,B25
0.901,0.000193,215000,B26
